Assays:
[1] = test system: Swiss mice; assay: Toxicity of glucose oxidase in Swiss mice; type: in vivo; conditions: intraperitoneally and intravenously
Procedure: The toxicity of glucose oxidase was evaluated in Swiss mice weighing about 20 grams, intraperitoneally and intravenously inoculated with different amounts of the purified enzyme. […] This allowed establishing an optimal dose range for GO for the combined therapy in this type of animal.

[2] = test system: W&Wlis cells; assay: DNA content analysis by flow cytometry, labeling with propidium iodide; type: cell-based, canine; design: unit not given here; conditions: 0 μg lin, 5 mEU/ml GO
[3] = test system: W&Wlis cells; assay: AIF location study by immunofluorescence; type: cell-based, canine; conditions: 5 mEU/ml glucose oxidase, with or without 500 μg/ml linamarin
Procedure: Nevertheless, the activation of AIF could be caused by a mechanism that is PARP-1-independent (Cregan, 2004). AIF is a protein residing in the mitochondrion and when activated, it translocates to the nucleus in which it activates apoptosis. The possible translocation of AIF was analyzed by immunofluorescence with antibodies specific against AIF of W&Wlis cells treated with the therapy.
The cells were seeded on cover slips in 24-well plates and were treated according to the requirements of each experiment. After the appropriate incubation time for each assay, the cells were fixed with 4% paraformaldehyde for 30 minutes at room temperature or methanol at −20° C. for 10 minutes. The samples were subsequently permeabilized 10 minutes with PBS supplemented with triton X-100 or 0.1% sodium dodecyl sulfate (SDS) and were blocked by incubating for 30 minutes with PBS with 0.1% triton X-100 and with 1% bovine serum albumin, or PBS with 0.01% SDS and a 10% fetal calf serum. They were subsequently incubated for 45 minutes with the primary antibody at room temperature or overnight at 4° C. The antibodies used were anti-linamarase (1/200, supplied by Monica Hughes) and anti-AIF (1/50, Cell Signaling Technology). The secondary antibody used was anti-rabbit IgG coupled to fluorescein (1/50, Amersham Pharmacia Biotech). […]

[4] = test system: W&Wlis cells; assay: Analysis of the type of death by flow cytometry (annexin V-FITC/propidium iodide); type: cell-based, canine
Procedure: The annexin V-FITC and propidium iodide assay was performed in parallel by flow cytometry. The pattern of death of the system was analyzed when adding 5 mEU/ml of glucose oxidase and the combined therapy (5 mEU/ml of GO and 500 μg/ml of linamarin) at 48 hours, followed by the control of untreated cells and of the cells incubated with 500 μg/ml of linamarin at 96 hours. Furthermore, another group of cells was subjected to the same conditions except 10 mM of N-acetyl cysteine (NAC) were added. The cells treated with the combined therapy were subsequently studied at 48 hours in the absence and presence of 100 μM of Z-VAD-fmk, followed by the control of treatment of the cells with UV in the same conditions. Finally, the cells treated with the combined therapy were shown at 48 hours in the absence and presence of 300 μM of 1,5-isoquinolinediol (DIQ), observing that the pattern of death is not modified when PARP-1 is inhibited (FIG. 4).
10^5 W&Wlis cells were seeded in test tubes with a screw-on cap and flat side (Nunc). After 24 hours, different amounts of linamarin (50, 200 or 500 μg/ml) and glucose oxidase (5 mEU/ml) were added in the specified cases. In the appropriate assays, the medium was supplemented with N-acetyl cysteine (10 mM), 1,5-isoquinolinediol (300 μM) or Z-VAD-fmk (100 μM). […] They were centrifuged for 5 minutes at 1200 rpm and the cell precipitate was washed first with PBS and then with binding buffer (0.1 M Hepes/NaOH pH 7.4, 1.4 M NaCl and 25 mM CaCl2). The cells were again precipitated and resuspended in 100 μl of binding buffer supplemented with 5 μl of annexin V-FITC and 2.5 μg/ml of propidium iodide. The samples were incubated for 15 minutes in the dark. Data acquisition and analysis was carried out by means of a FACSCalibur flow cytometer (DB Biosciences) with the Cell Quest program.

[5] = test system: W&Wlis cells; assay: Determination of the extracellular peroxide concentration; type: cell-based, canine; conditions: 48 hours; 0.5 mg/ml of linamarin and/or 5 mEU/ml of glucose oxidase; control approximately 20 μM
Procedure: The H2O2 levels (FIG. 3B) produced extracellularly in the combined therapy were further studied in the invention. To do so, the amount of H2O2 present in the culture medium of W&Wlis cells at 48 hours in a treatment with 0.5 mg/ml of linamarin, in the presence of 5 mEU/ml of glucose oxidase or in the combination of both treatments, was analyzed although positive results were also obtained using other concentrations.
The samples to be analyzed were diluted in 1 ml of 0.1 M phosphate buffer pH 7.4. Then 3.7 EU/ml of peroxidase (Sigma-Aldrich, St. Louis, USA) and 0.1 mg/ml of ortho-dianisidine (Sigma-Aldrich, St. Louis, USA) were added. The samples were incubated at room temperature for 30 minutes and absorbances at 436 nm were determined. The H2O2 concentration was obtained by interpolation of the data obtained in a standard line performed with increasing concentrations of H2O2.

[6] = test system: W&Wlis cells; assay: Measurement of intracellular ATP; type: cell-based, canine; conditions: linamarin (500 μg/ml) and/or glucose oxidase (5 mEU/ml), over time, versus untreated cells
Procedure: The levels of intracellular energy in the form of ATP decrease when a blockage of the mitochondrial electron transport chain occurs since it is the essential source of obtaining energy of the cells. […] This effect is due to the fact that the maximum H2O2 production by glucose oxidase occurs at short times because the cells have the ability of detoxifying the peroxide and due to the fact that glucose oxidase is inactivated over time by the serum proteins.
10^5 W&Wlis cells were seeded in test tubes with a screw-on cap and flat side (Nunc). After 24 hours, the medium was changed, adding linamarin (500 μg/ml) and glucose oxidase (5 mEU/ml) where appropriate. After 4, 8, 12, 24, 48 or 72 hours, the cells were centrifuged and processed following the instructions of the ATP Bioluminescence Assay Kit CLS II, of Roche Applied Science. The luminescence was analyzed with a Monolight 2010 luminometer (Analytical Luminescence Laboratory, San Diego) and expressed in relative light units (RLU).

[7] = test system: W&Wlis cells; assay: Structural modifications of the mitochondrion (pDsRed2-mito, confocal microscopy); type: cell-based, canine; conditions: linamarin 500 μg/ml from 48 hours; glucose oxidase 5 mEU/ml; combination after 24 hours
Procedure: For the purpose of studying the mitochondrial dynamics occurring as a result of the oxidative stress caused by the activity of the claimed system, W&Wlis cells were stably transfected with the plasmid pdsRed2-mito (Clontech) containing the gene of the one red fluorescent protein carried by a transport signal peptide to the mitochondrion. This allowed viewing the mitochondria of cells treated with linamarin and glucose oxidase by fluorescence microscopy. […] This effect starts to be observed 48 hours after treatment with linamarin (FIG. 1B) and becomes more pronounced after 72 hours, a slight swelling of the fragments (FIG. 1C) being observed.
To study the structural modifications of the mitochondrion during therapy, the W&W and W&Wlis cells were transfected with the plasmid pDsRed2-mito (Clontech, BD Bioscience) containing the gene of a red fluorescent protein which is expressed exclusively in mitochondria. The transfection was performed similarly to the previous section and clones were selected by resistance to neomycin (0.75 and 1.5 mg/ml respectively). The cells from stable expression clones of the protein were seeded in multiwell plates on cover slips (2.5×10^4) and were treated with linamarin (50, 200 or 500 μg/ml) and glucose oxidase (5 mEU/ml). After the suitable incubation time for each experiment (24, 48 or 72 hours) elapsed, the cells were fixed with 4% paraformaldehyde. […]

[8] = 0 μg lin, 5 mEU/ml GO, 48 hours, NAC (10 mM)
[9] = Table 4, 0 μg lin, 5 mEU/ml GO, 48 hours, Z-VAD-fmk (100 μM)
[10] = Table 4, 0 μg lin, 5 mEU/ml GO, 48 hours, control (no Z-VAD-fmk)
[11] = Table 5, GO, 32 hours, DIQ (300 μM)
[12] = Table 5, GO, 32 hours, control (no DIQ)
[13] = Table 5, GO, 48 hours, DIQ (300 μM)
[14] = Table 5, GO, 48 hours, control (no DIQ)

B1: GO: glucose oxidase enzyme catalyzing the conversion of glucose into gluconic acid, generating hydrogen peroxide (protein, UniProt P13006 17-605, looked up)
Glucose oxidase: LPHYIRSNGIEASLLTDPKDVSGRTVDYIIAGGGLTGLTTAARLTENPNISVLVIESGSYESDRGPIIEDLNAYGDIFGSSVDHAYETVELATNNQTALIRSGNGLGGSTLVNGGTWTRPHKAQVDSWETVFGNEGWNWDNVAAYSLQAERARAPNAKQIAAGHYFNASCHGVNGTVHAGPRDTGDDYSPIVKALMSAVEDRGVPTKKDFGCGDPHGVSMFPNTLHEDQVRSDAAREWLLPNYQRPNLQVLTGQYVGKVLLSQNGTTPRAVGVEFGTHKGNTHNVYAKHEVLLAAGSAVSPTILEYSGIGMKSILEPLGIDTVVDLPVGLNLQDQTTATVRSRITSAGAGQGQAAWFATFNETFGDYSEKAHELLNTKLEQWAEEAVARGGFHNTTALLIQYENYRDWIVNHNVAYSELFLDTAGVASFDVWDLLPFTRGYVHILDKDPYLHHFAYDPQYFLNELDLLGQAAATQLARNISNSGAMQTYFAGETIPGDNLAYDADLSAWTEYIPYHFRPNYHGVGTCSMMPKEMGGVVDNAARVYGVQGLRVIDGSIPPTQMSSHVMTVFYAMALKISDAILEDYASMQ
toxicity ([1]; daily doses between 0.25 and 0.1 EU/g): no harmful effect | toxicity ([1]; doses of 1 and 0.5 EU/g, first 24 hours post-administration): lethal effect | DNA content by flow cytometry, labeling with propidium iodide ([2]; 24 hours): 1.94 | DNA content by flow cytometry, labeling with propidium iodide ([2]; 48 hours): 1.03 | AIF location [3]: typically mitochondrial AIF pattern | Apoptosis ([4]; 0 μg lin, 5 mEU/ml GO, 24 h): 5.98 | Necrosis ([4]; 0 μg lin, 5 mEU/ml GO, 24 h): 12.27 | Apoptosis ([4]; 0 μg lin, 5 mEU/ml GO, 48 h): 8.34 | Necrosis ([4]; 0 μg lin, 5 mEU/ml GO, 48 h): 4.50 | Apoptosis [4, 8]: 5.98 | Necrosis [4, 8]: 5.42 | Apoptosis [4, 9]: 13.94 | Necrosis [4, 9]: 18.92 | Apoptosis [4, 10]: 3.27 | Necrosis [4, 10]: 29.59 | Apoptosis [4, 11]: 9.32 | Necrosis [4, 11]: 16.69 | Apoptosis [4, 12]: 6.50 | Necrosis [4, 12]: 27.11 | Apoptosis [4, 13]: 17.52 | Necrosis [4, 13]: 20.89 | Apoptosis [4, 14]: 12.92 | Necrosis [4, 14]: 31.87 | extracellular H2O2 concentration in the culture medium [5]: did not cause significant variations | intracellular ATP levels [6]: moderate and transitory reduction of ATP after 6 hours | mitochondrial pattern [7]: did not cause any structural change in most of the mitochondria

From US20100028366A1, “SYNERGISTIC EFFECT BETWEEN A […] AND ANOTHER OXIDATIVE INDUCING SYSTEM FOR TREATING TUMORS” (priority 2005, published 2010)
